Molecular target: T1, UPF2 (endogenous), Q9HAU5
T1 chain: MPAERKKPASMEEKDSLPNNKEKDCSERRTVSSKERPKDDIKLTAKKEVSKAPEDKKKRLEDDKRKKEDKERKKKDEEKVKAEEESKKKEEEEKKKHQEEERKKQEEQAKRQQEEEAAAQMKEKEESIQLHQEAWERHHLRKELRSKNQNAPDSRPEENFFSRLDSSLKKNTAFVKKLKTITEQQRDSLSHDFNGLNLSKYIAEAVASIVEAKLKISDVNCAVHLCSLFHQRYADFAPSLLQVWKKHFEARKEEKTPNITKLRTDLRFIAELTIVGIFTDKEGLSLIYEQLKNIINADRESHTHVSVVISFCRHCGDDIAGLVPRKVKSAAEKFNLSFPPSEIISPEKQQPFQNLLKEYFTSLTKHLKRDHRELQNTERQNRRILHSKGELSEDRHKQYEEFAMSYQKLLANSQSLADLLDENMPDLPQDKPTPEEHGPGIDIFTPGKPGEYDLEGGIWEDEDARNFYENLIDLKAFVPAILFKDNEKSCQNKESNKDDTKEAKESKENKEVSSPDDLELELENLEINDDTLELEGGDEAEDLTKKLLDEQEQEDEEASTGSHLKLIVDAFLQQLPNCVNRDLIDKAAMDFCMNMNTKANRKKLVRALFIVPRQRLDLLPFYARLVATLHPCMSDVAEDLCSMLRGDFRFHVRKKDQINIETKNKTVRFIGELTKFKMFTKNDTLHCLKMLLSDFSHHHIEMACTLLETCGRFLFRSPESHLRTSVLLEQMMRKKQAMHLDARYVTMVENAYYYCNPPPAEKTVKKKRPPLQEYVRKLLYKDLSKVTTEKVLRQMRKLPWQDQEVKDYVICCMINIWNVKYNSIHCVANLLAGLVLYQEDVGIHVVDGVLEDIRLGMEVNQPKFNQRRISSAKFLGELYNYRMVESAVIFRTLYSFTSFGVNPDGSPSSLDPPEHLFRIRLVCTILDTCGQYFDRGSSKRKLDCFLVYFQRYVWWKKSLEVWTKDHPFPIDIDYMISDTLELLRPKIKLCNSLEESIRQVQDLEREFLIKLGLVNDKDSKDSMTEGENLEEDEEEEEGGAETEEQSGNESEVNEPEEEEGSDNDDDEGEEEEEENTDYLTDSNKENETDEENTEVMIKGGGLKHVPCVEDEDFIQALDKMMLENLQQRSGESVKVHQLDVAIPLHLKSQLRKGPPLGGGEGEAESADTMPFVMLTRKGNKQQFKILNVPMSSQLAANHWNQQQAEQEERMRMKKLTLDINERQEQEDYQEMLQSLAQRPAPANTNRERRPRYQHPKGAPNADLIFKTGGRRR
Assay: TurboID proximity labelling, streptavidin enrichment, mass spectrometry
Settings: chain shown with the change; UPF3B KO + UPF3A KD cells; n = 3 biologically independent samples; read off a plot

B1: FLAG-TurboID-UPF3B, Q9BZI7-2 K52D; RR56EE (protein)
chain: MKEEKEHRPKEKRVTLLTPAGATGSGGGTSGDSSKGEDKQDRNKEKKEALSDVVIEELPPTLTKEQLQEHLQPMPEHDYFEFFSNDTSLYPHMYARAYINFKNQEDIILFRDRFDGYVFLDNKGQEYPAIVEFAPFQKAAKKKTKKRDTKVGTIDDDPEYRKFLESYATDNEKMTSTPETLLEEIEAKNRELIAKKTTPLLSFLKNKQRMREEKREERRRREIERKRQREEERRKWKEEEKRKRKDIEKLKKIDRIPERDKLKDEPKIKLLKKPEKGDEKELDKREKAKKLDKENLSDERASGQSCTLPKRSDSELKDEKPKRPEDESGRDYREREREYERDQERILRERERLKRQEEERRRQKERYEKEKTFKRKEEEMKKEKDTLRDKGKKAESTESIGSSEKTEKKEEVVKRDRIRNKDRPAMQLYQPGARSRNRLCPPDDSTKSGDSAAERKQESGISHRKEGGEE
Q: B1 was tested. Which other: log2 fold change did it give?
A: -1.8

Reference: publication PMC9108619
